Laboratory results as given in patent US20230257722.

Columns and labels:
Assay in all cases: cell_activity
[1] = tested on: TL4412 SMARCA4 right TALE-SEQ6 nuclease (synthetic); conditions: A549, mRNA, pair with p6L; Table 10 75.2% cleavage
[2] = tested on: TL4412 SMARCA4 right TALE-SEQ2 nuclease (synthetic); conditions: A549, mRNA, pair with p2L; Table 10 67.6% cleavage
[3] = tested on: TL4412 SMARCA4 right TALE-SEQ4 nuclease (synthetic); conditions: A549, mRNA, pair with p4L; Table 10 94.5% cleavage
[4] = tested on: TL4412 SMARCA4 right TALE-SEQ5 nuclease (synthetic); conditions: A549, mRNA, pair with p5L; no cleavage, binding not measured
[5] = tested on: TL4412 SMARCA4 right TALE-SEQ1 nuclease (synthetic); conditions: A549, mRNA, pair with p1L; Table 10 59.7% cleavage
[6] = tested on: TL4412 SMARCA4 right TALE-FokI (synthetic); conditions: A549, mRNA, pair with pFL
[7] = tested on: TL4412 SMARCA4 right TALE-SEQ7 nuclease (synthetic); conditions: A549, mRNA, pair with p7L; no cleavage, binding not measured
[8] = tested on: TL4412 SMARCA4 right TALE-SEQ8 nuclease (synthetic); conditions: A549, mRNA, pair with p8L; Table 10 70.4% cleavage
[9] = tested on: TL4409 SMARCA4 left TALE-SEQ6 nuclease (synthetic); conditions: A549, mRNA, pair with p6R; Table 10 75.2% cleavage
[10] = tested on: TL4409 SMARCA4 left TALE-SEQ5 nuclease (synthetic); conditions: A549, mRNA, pair with p5R; no cleavage, binding not measured
[11] = tested on: TL4409 SMARCA4 left TALE-SEQ2 nuclease (synthetic); conditions: A549, mRNA, pair with p2R; Table 10 67.6% cleavage
[12] = tested on: TL4409 SMARCA4 left TALE-SEQ4 nuclease (synthetic); conditions: A549, mRNA, pair with p4R; Table 10 94.5% cleavage
[13] = tested on: TL4409 SMARCA4 left TALE-FokI (synthetic); conditions: A549, mRNA, pair with pFR
[14] = tested on: TL4409 SMARCA4 left TALE-SEQ8 nuclease (synthetic); conditions: A549, mRNA, pair with p8R; Table 10 70.4% cleavage
[15] = tested on: TL4409 SMARCA4 left TALE-SEQ7 nuclease (synthetic); conditions: A549, mRNA, pair with p7R; no cleavage, binding not measured
[16] = tested on: TL4409 SMARCA4 left TALE-SEQ1 nuclease (synthetic); conditions: A549, mRNA, pair with p1R; Table 10 59.7% cleavage

Sequence	activity [1] [% indels]	activity [2] [% indels]	activity [3] [% indels]	activity [4] [% indels]	activity [5] [% indels]	activity [6] [% indels]	activity [7] [% indels]	activity [8] [% indels]	activity [9] [% indels]	activity [10] [% indels]	activity [11] [% indels]	activity [12] [% indels]	activity [13] [% indels]	activity [14] [% indels]	activity [15] [% indels]	activity [16] [% indels]
ACTGAGAGAGTGGACAAGC (double strand) [SMARCA4 right half-site (top strand)]	1	8	87	0	42	74	0	38	–	–	–	–	–	–	–	–
GGCGTGTCCCAGGCCCTTGC (double strand) [SMARCA4 left half-site]	–	–	–	–	–	–	–	–	1	0	8	87	74	38	0	42
